Values quoted from earlier work, collected in US8703913B2, “Sensor” (Medical Research Council, priority 2008, dated 2014).
Where two headings read alike, the source gives them in different places.

Key:
[1] = reported (19); read-out: dissociation constant for ethenoADP; cited from earlier work
[2] = reported (19), cited from earlier work
[3] = 37° C.; reported (16); cited from earlier work

B1: wild-type ParM: prokaryotic actin homologue encoded on Escherichia coli plasmid R1, accession P11904 (protein, listed as Escherichia coli)
chain: MLVFIDDGSTNIKLQWQESDGTIKQHISPNSFKREWAVSFGDKKVFNYTLNGEQYSFDPISPDAVVTTNIAWQYSDVNVVAVHHALLTSGLPVSEVDIVCTLPLTEYYDRNNQPNTENIERKKANFRKKITLNGGDTFTIKDVKVMPESIPAGYEVLQELDELDSLLIIDLGGTTLDISQVMGKLSGISKIYGDSSLGVSLVTSAVKDALSLARTKGSSYLADDIIIHRKDNNYLKQRINDENKISIVTEAMNEALRKLEQRVLNTLNEFSGYTHVMVIGGGAELICDAVKKHTQIRDERFFKTNNSQYDLVNGMYLIGN
[1]
  Kd: 2400 nM
[2]
  ethenoATP bound tighter than ethenoADP: 60 fold
[2]; read-out: Kd for ethenoATP
  Kd: 40 nM
[2]; read-out: dissociation constant for ethenoATP
  Kd: 40 nM
[3]
  ATPase activity accelerated by polymerization: ~3 min⁻¹
